From article PMC8595662

Columns and labels:
[1] = target: AMMO1, human gH/gL-specific neutralizing antibody (recombinant IgG1) (human); test: SPR
AMMO1 (human) = test: SPR
Sequence of AMMO1 (human) (heavy, as listed by the source, chain 1 of 2): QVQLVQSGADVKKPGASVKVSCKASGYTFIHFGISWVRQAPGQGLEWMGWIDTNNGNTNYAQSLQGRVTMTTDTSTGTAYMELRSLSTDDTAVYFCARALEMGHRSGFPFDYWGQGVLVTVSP
Sequence of AMMO1 (human) (light, as listed by the source, chain 2 of 2): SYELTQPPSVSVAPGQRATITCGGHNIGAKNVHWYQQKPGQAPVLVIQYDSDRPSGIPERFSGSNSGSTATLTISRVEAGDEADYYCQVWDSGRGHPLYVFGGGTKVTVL

Sequence of AMMO1, human gH/gL-specific neutralizing antibody (recombinant IgG1) (human) (heavy, as listed by the source, chain 1 of 2): as the sequence (heavy, as listed by the source, chain 1 of 2) above
Sequence of AMMO1, human gH/gL-specific neutralizing antibody (recombinant IgG1) (human) (light, as listed by the source, chain 2 of 2): as the sequence (light, as listed by the source, chain 2 of 2) above

Substance	Kd [1] [nM]	koff (AMMO1 (human)) [s⁻¹]
EBV gH/gL single chain with N310A in gH (from UniProt P03231;P03212) (complex)	0.19	
gH N310A/gL (from UniProt P03231;P03212) (complex)		9.6e-05
